Data: paper PMC5800811

B1: CD59: DMJ (protein)
parent chain: MGIQGGSVLFGLLLVLAVFCHSGHSLQCYNCPNPTADCKTAVNCSSDFDACLITKAGLQVYNKCWKFEHCNFNDVTTRLRENELTYYCCKKDLCNFNEQLENGGTSLSEKTVLLLVTPFLAAAWSLHP
B2: CD59: DNJ (protein)
parent chain: B1 parent chain
B3: CD59: KIF (protein)
parent chain: B1 parent chain
B4: CD59: sgALG8 in MOGS-KO (protein)
parent chain: B1 parent chain
B5: CD59: sgALG6 in MOGS-KO (protein)
parent chain: B1 parent chain
B6: CD59: GANAB-KO (protein)
parent chain: B1 parent chain

Key:
[1] = 10-11 d drug culture, PIPLC, anti-CD59 flow cytometry; settings: glycan changed form; control: untreated HEK293FF6 cells
[2] = PIPLC treatment, anti-CD59 flow cytometry; settings: glycan changed form

Protein	other: PIPLC resistance of surface CD59 (GPI-inositol acylation) [1]	other: PIPLC resistance of surface CD59 (GPI-inositol acylation) ([2]; control: MOGS-KO cells)	also measured
B1	no change		
B2	increases		
B3	no change		
B4		decreases	
B5		decreases	
B6			other: PIPLC resistance of surface CD59 (GPI-inositol acylation) ([2]; control: WT HEK293 cells): increases
